Data on ten substances can be found in patent US6998240B2, “Screen for selective inhibitors or activators of Smad protein function” (Wisconsin Alumni Research Foundation, priority 2001, dated 2006).

For test [1], the target named is IC5-labelled GST-CBP fusion protein [GST: P08515]. Nature of the test: HTRF, Eu-anti-GST donor plus GST-CBP-IC5 acceptor, well B07. A general note: In TR-FRET formats the signal depends on donor and acceptor labels being close together.
Test [2] has the same target. The experiment in a line: HTRF, Eu-anti-GST donor plus GST-CBP-IC5 acceptor, well B08.
Test [3] has as its target phosphorylated Smad2 (His-tagged, full length, from Sf9 cells co-infected with Alk5 T204D virus) (UniProt Q15796). The experiment in a line: HTRF competition against biotinylated FAST peptide.
Another test addresses T1, Smad2-P (Homo sapiens, UniProt Q15796).
T1 construct: Smad2; 1–467; pBlueBac; His; made in house; host or cells: Sf9 insect cells (baculovirus), co-infected with virus for membrane-targeted human Alk5 T204D
The experiment in a line: HTRF assay of biotin-FAST peptide binding to Smad2-P (competition). Conditions: for Average Normalized Counts / Percent of Control (minus Background): Biotin-FAST binding to Smad2-P. The text has this: To establish HTRF assays for Smad protein interactions, we have used reagents from Wallac-Perkin Elmer and Packard that include Europium-cryptate coupled to α-His epitope tag antibody, α-GST antibody or Streptavidin. As acceptor fluorophores we have used allophycocyanin (Packard's XL665) coupled to Streptavidin or direct labeling of GST-fusion protein with IC5 (Dojindo). Reagents are mixed in a 50 microliter volume in the wells of a 384 Black non-treated microwell plate (Corning) and HTRF detected in a Wallac Victor V multimode plate reader. The reader detects emission at 615 nm from the Europium chelate donor and at 665 nm from the APC or IC5 acceptor. Background, cross-talk and high FRET wells can be indicated on the plate map to allow the machine to compute a normalized value as a ratio Rn=(ET/D) Dmax where ET=A−BI−(C×D). • A—Fluorescence at 665 nm • BI—Blank (buffer only) at 665 nm • D—Fluorescence at 615 nm • C—Cross-talk correction value calculated from wells containing only donor fluorophore • (from “Quench Correction for LANCE TR-FRET” by Perkin-Elmer Wallace)
Over the past several months we have developed three HTRF assays for Smad binding interactions. All three assays use a Eu-chelate α-His epitope tag antibody as the donor. The antibody recognizes the hexahistidine epitope tag on the Smad proteins produced in the baculovirus expression system described above. As acceptors, we have used Streptavidin conjugated to allophycocyanin (Packard) that binds to biotinylated peptides. The peptides are synthesized to comprise the Smad interaction domain motif from human FAST or c-Jun (FIG. 3). The FAST 24-mer amino acid sequence is based on the homology between FAST, Mixer and Milk reported by Germain and colleagues (Germain, S., et al., supra, 2000). The24-mer C-JUN sequence is based on studies using deletions and gene fragments to define the Smad interaction motif (Zhang, Y., et al., supra, 1998; Liberati, N. T. et al., Proc. Natl. Acad. Sci. USA 96:4844–9, 1999). We also have developed an HTRF assay using IC5-GST-CBP, a fusion protein comprising the Smad interaction domain motif from CBP (a generous gift of Dr. Yigong Shi, Princeton University).
The assays are done in a 50 μl volume in the well of a 384-well plate. The assay buffer, as recommended by Packard for their HTRF reagents is 50 mM K-Hepes pH 7.0, 400 mM KF and 0.1% BSA. The high concentration of KF is recommended for the Eu(K) reagents from Packard. […] We have also optimized through many titrations the amount of Smad protein (220 ng/well, ˜4 pmoles per well of monomer), the concentration of biotinylated peptide (1 uMolar for FAST and C-JUN), the amount of Eu-anti-His tag antibody (36 ng/well) and the amount of Streptactin-APC (0.5 μg/well).
We used the FAST-SmadP HTRF assay described above. […] After 1 hr at room temperature, Streptavidin-APC was added to each well and 30 minutes later the fluorescence emissions at 615 nm and 665 nm were read in a PE-Wallac Victor V.

A further test concerns the target T2, Smad3-P (Homo sapiens, UniProt P84022).
T2 construct: Smad3; 1–425; pBlueBac; His; made in house; host or cells: Sf9 insect cells (baculovirus), co-infected with virus for human Alk5 T204D
The experiment in a line: HTRF assay of FAST / Jun Smad interaction motif peptide binding to Smad3-P.

In test [4] the target is phosphorylated Smad2 (His-tagged, full length, from Sf9 cells co-infected with Alk5 T204D virus) (UniProt Q15796). The experiment in a line: HTRF competition, biotin-FAST on Smad2-P, inhibitor at 20 µM.
The target is the same in test [5]. The experiment in a line: HTRF competition, biotin-FAST on Smad2-P, inhibitor at 50 µM.
The target is the same in test [6]. The experiment in a line: HTRF competition, biotin-FAST on Smad2-P, inhibitor at 40 µM.
Test [7] addresses unphosphorylated Smad2 (His-tagged, full length) (UniProt Q15796). The experiment in a line: HTRF, well D12 Smad2.
Test [8] has the same target. The experiment in a line: HTRF, well D13 Smad2.
Test [9] has the same target. Nature of the test: HTRF, well D14 Smad2.
Test [10] deals with Smad4 (Strep-tagged, full length) (UniProt Q13485). Nature of the test: HTRF, well D17 Smad4.
Smad4 (Strep-tagged, full length), sequence (Q13485 whole entry): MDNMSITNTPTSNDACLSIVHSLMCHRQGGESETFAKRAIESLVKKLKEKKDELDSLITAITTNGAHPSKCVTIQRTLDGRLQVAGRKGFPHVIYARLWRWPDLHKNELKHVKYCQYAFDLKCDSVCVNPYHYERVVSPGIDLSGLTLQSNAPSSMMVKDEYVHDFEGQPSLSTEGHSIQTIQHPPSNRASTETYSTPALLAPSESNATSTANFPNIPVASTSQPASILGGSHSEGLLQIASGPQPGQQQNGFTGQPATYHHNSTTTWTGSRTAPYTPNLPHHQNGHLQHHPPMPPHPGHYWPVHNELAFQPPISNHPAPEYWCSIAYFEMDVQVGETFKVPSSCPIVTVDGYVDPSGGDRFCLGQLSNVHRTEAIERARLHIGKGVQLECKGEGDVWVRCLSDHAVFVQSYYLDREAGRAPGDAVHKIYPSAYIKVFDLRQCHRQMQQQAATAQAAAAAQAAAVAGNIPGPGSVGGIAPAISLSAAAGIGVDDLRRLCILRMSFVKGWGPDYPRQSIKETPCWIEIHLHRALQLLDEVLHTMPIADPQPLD
Test [11] has the same target. The experiment in a line: HTRF, well D18 Smad4.
Test [12] has the same target. Nature of the test: HTRF, well D19 Smad4.
The target is the same in test [13]. The experiment in a line: HTRF, well D20 Smad4.
The target in test [14] is phosphorylated Smad2 (His-tagged, full length, from Sf9 cells co-infected with Alk5 T204D virus) (UniProt Q15796). The experiment in a line: HTRF, well D05 Smad2P.
For test [15] the target is unchanged. The experiment in a line: HTRF, well D09 Smad2P.
For test [16], the target named is phosphorylated Smad3 (His-tagged, full length) (UniProt P84022). Nature of the test: HTRF, well D15 Smad3P.
phosphorylated Smad3 (His-tagged, full length), sequence (P84022 whole entry): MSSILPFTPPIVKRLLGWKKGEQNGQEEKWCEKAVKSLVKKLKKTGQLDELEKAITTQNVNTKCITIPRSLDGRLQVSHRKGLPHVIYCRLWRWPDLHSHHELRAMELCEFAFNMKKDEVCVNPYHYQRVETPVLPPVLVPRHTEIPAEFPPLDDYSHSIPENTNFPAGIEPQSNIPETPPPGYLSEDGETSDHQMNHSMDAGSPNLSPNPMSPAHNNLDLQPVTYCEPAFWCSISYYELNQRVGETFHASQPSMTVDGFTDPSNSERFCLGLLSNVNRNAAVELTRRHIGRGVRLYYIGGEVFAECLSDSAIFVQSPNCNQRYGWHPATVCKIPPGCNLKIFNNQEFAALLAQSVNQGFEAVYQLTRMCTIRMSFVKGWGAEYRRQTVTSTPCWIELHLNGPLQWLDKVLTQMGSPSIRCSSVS
For test [17] the target is unchanged. Nature of the test: HTRF, well D16 Smad3P.
Test [18] concerns the target unphosphorylated Smad2 (His-tagged, full length) (UniProt Q15796). The experiment in a line: HTRF, well D11 Smad2 (No Smad well: 260).
In test [19] the target is phosphorylated Smad2 (His-tagged, full length, from Sf9 cells co-infected with Alk5 T204D virus) (UniProt Q15796). Nature of the test: HTRF, IC5-GST-CBP binding to Smad2-P, no inhibitor.
The target is the same in test [20]. The experiment in a line: HTRF, well D06 Smad2P with unlabelled GST-CBP competitor added after equilibrium.
For test [21] the target is unchanged. Nature of the test: HTRF, well D10 Smad2P with unlabelled GST-CBP competitor added after equilibrium.

No end group written: not given here.

Procedure for Smad3-P: The HTRF assay for detecting Smad protein interactions was used to quantify binding between the FAST Smad interaction motif and purified Smad 3 (phosphorylated). The indicated amounts of peptide or peptide aptamer were added as competitive inhibitors.
All three assays use a Eu-chelate α-His epitope tag antibody as the donor. The antibody recognizes the hexahistidine epitope tag on the Smad proteins produced in the baculovirus expression system described above. […] The peptides are synthesized to comprise the Smad interaction domain motif from human FAST or c-Jun (FIG. 3).

Take “Europium-cryptate αGST antibody (Packard)”: in [1], the Emission 665 came to 5170 counts and the Normalized Counts was found to be 6800 counts. Moreover, in test [2], the Emission 665 stood at 9450 counts and the Normalized Counts came out at 9110 counts.
For the substance “GST-trx-FAST aptamer with two amino acids deleted from the N-terminus of the FAST SIM (from UniProt O75593 329-350) (designed binder)”, the fold higher IC50 than GST-trx-FAST in [3] is 10 fold.
On to “GST-trx: 35 kd GST-trx fusion protein, scaffold without SIM insert [reference compound]”, for which the “effect on binding (in words)” value in the test with Smad2-P (8 μg/50 ul) is reported as “very little effect”. In addition, the “competitive inhibition of FAST Smad interaction motif binding to Smad 3 (phosphorylated) (in words)” value with Smad3-P is on record as “did not interfere with binding”.
The substance “GST-trx-FAST aptamer with two amino acids deleted from the C-terminus of the FAST SIM (from UniProt O75593 327-348) (designed binder)” returned a fold higher IC50 than GST-trx-FAST in test [3] of 10 fold.
Take “hFAST-24mer PP>AA peptide (from UniProt O75593 327-350)”: the Average Normalized Counts in test [4] came out at 1920 counts; in [5], 1860 counts.
On to “JUN 24 mer: 24-mer peptide of the Smad interaction motif from c-Jun (LKQKVMNHVNSGCQLMLTQQLQTF)”, for which, in the test with Smad2-P, the “competition for Biotin-FAST binding to Smad-2P (in words)” value is recorded as “inability”. In the test with Smad2-P (20 μM inhibitor peptide), the “Average Normalized Counts” value amounted to 1984 and the “Percent of Control (minus Background)” value turned out to be 106%. Further, in the test with Smad2-P (40 μM inhibitor peptide), the “Average Normalized Counts” value was found to be 1964 and the “Percent of Control (minus Background)” value came to 105%.
Regarding “C-JUN: biotinylated 24-mer c-Jun Smad interaction motif peptide, HTRF ligand (LKQKVMNHVNSGCQLMLTQQLQTF; also: biotinylated, site not given here)”, the “time for binding reaction to reach equilibrium” value in the test with Smad3-P (1 μM biotinylated peptide) is listed as “about 90 minutes”.
For the substance “hFAST-13mer peptide (from UniProt O75593 331-343)”, the Average Normalized Counts in test [4] was determined as 2020 counts; in [5] it was 1980 counts. Further, the values for the Percent of Control (minus Background) in [4] and in [5] were 108% and 106%, respectively.
In the case of “cJUN-24mer peptide (unlabelled) (from UniProt P05412 308-331)”, the Average Normalized Counts in test [4] came to 1980 counts; in [6], 1960 counts. In addition, the Percent of Control (minus Background) was determined as 106% in test [4] and 105% in test [6].
As to “IC5-labelled GST-CBP fusion protein (from UniProt P08515 1-218)”, the Normalized Counts in test [7] worked out at 315 counts; in test [8], 311 counts; in test [9], 327 counts; in [10] it was 149 counts; in test [11] it was 206 counts; in [12], 252 counts. The Normalized Counts in [13] was determined as 150 counts; in [14], 593 counts; in test [15], 617 counts; in test [16] it was 665 counts; in test [17] it was 683 counts; in test [18] it was 334 counts. For the same substance, the Normalized Counts in [20] was found to be 322 counts; in test [21], 353 counts. The substance also displayed an Average Normalized Counts in test [19] of 751 counts. The Percent of Control (minus Background) in test [19] was 100%.
